# Tests used:
# [1] = molecular target: factor H (FH) from mouse, purified (mouse (Mus musculus)) (UniProt P06909); assay: SPR; Biacore 3000; ten micrograms of FH from human, mouse or horse conjugated to a CM5 chip; CspA proteins injected at 10 μL/min, 25°C; 1:1 Langmuir model
# [2] = molecular target: factor H (FH) from human, purified (human) (UniProt P08603); assay: as above
# [3] = molecular target: factor H (FH) from mouse, purified (mouse (Mus musculus)) (UniProt P06909); assay: ELISA; one microgram of FH coated on microtiter wells; 0.03125 to 2 μM histidine-tagged CspA proteins or DbpA added; detected by mouse anti-histidine tag; KD from a one-site fit of OD405
# [4] = molecular target: factor H (FH) from human, purified (human) (UniProt P08603); assay: as above
# [5] = molecular target: factor H (FH) from Coturnix quail (Coturnix coturnix quail); assay: as above
# [6] = molecular target: human plasminogen (human); assay: SPR; Biacore 3000; ten micrograms of human C7, C9 or plasminogen conjugated on a CM5 chip (2823, 2034 and 2106 RU); 0.0625 to 1 uM histidine tagged CspA protein flowed over at 10 uL/min, 25°C; 1:1 Langmuir model
# [7] = molecular target: human complement C9 (human) (UniProt P02748); assay: as above
# human complement C9 (human), sequence (P02748 22-559): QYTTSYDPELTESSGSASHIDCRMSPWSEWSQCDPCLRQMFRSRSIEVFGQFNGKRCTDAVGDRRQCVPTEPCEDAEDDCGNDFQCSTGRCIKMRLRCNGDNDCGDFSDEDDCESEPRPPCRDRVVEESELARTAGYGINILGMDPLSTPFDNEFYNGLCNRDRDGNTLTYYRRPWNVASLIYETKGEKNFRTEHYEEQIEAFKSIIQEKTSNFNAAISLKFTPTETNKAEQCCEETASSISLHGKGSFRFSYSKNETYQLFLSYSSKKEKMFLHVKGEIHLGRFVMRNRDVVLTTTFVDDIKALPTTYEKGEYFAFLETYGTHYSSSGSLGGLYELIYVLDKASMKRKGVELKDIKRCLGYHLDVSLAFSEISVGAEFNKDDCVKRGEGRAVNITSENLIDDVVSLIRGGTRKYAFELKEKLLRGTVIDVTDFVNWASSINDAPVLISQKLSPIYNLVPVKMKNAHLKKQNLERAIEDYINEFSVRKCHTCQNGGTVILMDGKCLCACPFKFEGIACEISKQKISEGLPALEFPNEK
# [8] = molecular target: human complement C7 (human) (UniProt P10643); assay: as above
# human complement C7 (human), sequence (P10643 23-843): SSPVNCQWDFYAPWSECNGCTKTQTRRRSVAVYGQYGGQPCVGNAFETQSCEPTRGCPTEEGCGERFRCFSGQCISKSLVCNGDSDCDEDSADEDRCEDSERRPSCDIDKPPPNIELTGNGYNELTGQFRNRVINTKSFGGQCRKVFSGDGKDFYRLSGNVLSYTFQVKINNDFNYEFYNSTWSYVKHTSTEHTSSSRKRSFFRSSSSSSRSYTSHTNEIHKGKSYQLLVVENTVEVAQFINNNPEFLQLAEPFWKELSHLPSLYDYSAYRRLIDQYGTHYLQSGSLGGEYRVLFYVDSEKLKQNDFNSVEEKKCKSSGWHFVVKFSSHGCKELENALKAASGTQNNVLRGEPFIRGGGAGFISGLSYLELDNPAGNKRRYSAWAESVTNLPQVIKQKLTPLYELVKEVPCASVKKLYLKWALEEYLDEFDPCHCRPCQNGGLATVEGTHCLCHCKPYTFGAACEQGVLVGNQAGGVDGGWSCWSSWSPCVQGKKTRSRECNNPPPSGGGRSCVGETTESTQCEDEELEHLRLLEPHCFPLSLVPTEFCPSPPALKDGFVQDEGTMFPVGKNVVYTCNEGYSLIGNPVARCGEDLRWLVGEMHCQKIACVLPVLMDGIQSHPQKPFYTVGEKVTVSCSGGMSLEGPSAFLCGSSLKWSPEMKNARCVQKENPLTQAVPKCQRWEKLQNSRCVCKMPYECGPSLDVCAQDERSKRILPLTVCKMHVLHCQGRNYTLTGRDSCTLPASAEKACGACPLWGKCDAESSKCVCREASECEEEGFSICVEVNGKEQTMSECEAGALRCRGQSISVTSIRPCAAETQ
# [9] = molecular target: factor H (FH) from horse (horse); assay: SPR; Biacore 3000; ten micrograms of FH from human, mouse or horse conjugated to a CM5 chip; CspA proteins injected at 10 μL/min, 25°C; 1:1 Langmuir model
# [10] = molecular target: factor H (FH) from horse (horse); assay: ELISA; one microgram of FH coated on microtiter wells; 0.03125 to 2 μM histidine-tagged CspA proteins or DbpA added; detected by mouse anti-histidine tag; KD from a one-site fit of OD405
# factor H (FH) from mouse, purified (mouse (Mus musculus)), sequence (P06909 19-1234): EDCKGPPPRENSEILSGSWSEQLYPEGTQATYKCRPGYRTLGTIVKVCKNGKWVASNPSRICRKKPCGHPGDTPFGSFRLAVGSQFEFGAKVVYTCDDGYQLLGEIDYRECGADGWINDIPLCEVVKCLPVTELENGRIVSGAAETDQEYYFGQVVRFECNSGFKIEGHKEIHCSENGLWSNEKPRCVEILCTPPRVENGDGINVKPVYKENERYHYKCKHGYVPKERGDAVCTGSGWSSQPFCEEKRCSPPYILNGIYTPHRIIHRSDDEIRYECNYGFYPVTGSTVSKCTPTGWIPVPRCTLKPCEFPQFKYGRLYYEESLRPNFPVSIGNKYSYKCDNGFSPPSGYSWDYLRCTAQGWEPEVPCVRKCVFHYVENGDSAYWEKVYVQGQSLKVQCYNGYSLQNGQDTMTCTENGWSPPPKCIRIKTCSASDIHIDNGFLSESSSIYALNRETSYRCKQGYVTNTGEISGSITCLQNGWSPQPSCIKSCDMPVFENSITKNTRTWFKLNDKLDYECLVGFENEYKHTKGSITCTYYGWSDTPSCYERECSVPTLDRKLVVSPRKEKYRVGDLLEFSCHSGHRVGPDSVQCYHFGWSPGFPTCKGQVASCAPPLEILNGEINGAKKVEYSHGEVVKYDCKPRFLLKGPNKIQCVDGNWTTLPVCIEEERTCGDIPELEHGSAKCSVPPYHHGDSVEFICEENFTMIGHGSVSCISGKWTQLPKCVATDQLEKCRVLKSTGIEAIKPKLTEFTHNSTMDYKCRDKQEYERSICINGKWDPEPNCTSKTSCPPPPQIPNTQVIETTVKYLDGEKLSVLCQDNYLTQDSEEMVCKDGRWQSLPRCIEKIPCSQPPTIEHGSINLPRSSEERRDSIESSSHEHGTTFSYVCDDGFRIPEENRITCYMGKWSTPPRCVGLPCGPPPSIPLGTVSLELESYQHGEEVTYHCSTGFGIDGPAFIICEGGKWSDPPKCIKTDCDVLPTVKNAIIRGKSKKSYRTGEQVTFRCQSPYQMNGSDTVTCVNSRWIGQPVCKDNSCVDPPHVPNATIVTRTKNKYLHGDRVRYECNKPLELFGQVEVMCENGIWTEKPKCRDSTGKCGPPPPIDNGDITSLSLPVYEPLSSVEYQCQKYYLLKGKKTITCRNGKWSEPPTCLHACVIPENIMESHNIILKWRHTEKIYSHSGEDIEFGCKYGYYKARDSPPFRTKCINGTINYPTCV
# factor H (FH) from human, purified (human), sequence (P08603 19-1231): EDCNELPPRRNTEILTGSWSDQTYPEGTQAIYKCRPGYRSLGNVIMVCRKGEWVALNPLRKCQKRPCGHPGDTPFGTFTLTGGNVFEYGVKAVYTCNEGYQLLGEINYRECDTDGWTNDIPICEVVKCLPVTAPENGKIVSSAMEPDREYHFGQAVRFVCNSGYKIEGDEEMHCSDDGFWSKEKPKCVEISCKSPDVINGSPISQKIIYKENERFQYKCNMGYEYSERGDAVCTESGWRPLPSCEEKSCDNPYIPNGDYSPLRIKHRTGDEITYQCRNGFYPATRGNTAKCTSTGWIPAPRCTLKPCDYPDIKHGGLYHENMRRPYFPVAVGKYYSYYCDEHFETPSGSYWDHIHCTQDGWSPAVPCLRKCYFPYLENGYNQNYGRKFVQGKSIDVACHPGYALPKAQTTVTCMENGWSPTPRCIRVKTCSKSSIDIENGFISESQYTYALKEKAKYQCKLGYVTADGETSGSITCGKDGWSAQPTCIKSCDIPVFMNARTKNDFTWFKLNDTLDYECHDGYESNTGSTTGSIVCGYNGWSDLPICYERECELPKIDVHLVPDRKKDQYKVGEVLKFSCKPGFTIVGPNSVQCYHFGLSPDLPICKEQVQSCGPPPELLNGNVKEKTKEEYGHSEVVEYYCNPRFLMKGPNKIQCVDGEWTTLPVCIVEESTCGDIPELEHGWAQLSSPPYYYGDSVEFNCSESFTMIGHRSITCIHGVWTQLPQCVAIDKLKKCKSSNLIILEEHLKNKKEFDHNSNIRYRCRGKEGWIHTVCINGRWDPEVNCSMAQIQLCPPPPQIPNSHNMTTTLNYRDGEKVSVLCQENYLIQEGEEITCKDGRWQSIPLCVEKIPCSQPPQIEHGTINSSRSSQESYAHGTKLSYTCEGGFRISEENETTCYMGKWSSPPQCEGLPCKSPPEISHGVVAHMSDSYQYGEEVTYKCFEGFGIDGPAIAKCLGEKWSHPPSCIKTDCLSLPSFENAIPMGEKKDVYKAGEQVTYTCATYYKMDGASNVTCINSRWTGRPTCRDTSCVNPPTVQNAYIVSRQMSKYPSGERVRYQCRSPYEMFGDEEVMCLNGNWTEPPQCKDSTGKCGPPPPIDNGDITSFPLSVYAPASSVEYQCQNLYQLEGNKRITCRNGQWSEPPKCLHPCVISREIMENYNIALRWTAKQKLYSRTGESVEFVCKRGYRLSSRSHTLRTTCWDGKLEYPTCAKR
Substance,Kd [1] [nM],koff [1] [s⁻¹],kon [1] [M⁻¹ s⁻¹],Kd [2] [nM],koff [2] [s⁻¹],kon [2] [M⁻¹ s⁻¹],Kd [3] [nM],Kd [4] [nM],Kd [5] [nM],Kd [6] [nM],koff [6] [s⁻¹],kon [6] [M⁻¹ s⁻¹],Kd [7] [nM],koff [7] [s⁻¹],kon [7] [M⁻¹ s⁻¹],Kd [8] [nM],koff [8] [s⁻¹],kon [8] [M⁻¹ s⁻¹],other results
recombinant histidine-tagged CspA of B. afzelii strain PKo (CspAPKo) (from UniProt G0IU82 1-241) (natural protein),460,0.048,115000,110,0.014,152000,760,160,–,–,–,–,–,–,–,–,–,–,–
recombinant histidine-tagged CspA of B. garinii strain ZQ1 (CspAZQ1) (natural protein),–,–,–,–,–,–,–,–,360,–,–,–,–,–,–,–,–,–,–
"CspA (Bba68) from B. burgdorferi strain B31, histidine tagged, residue 26 to 252 (domain or fragment)",–,–,–,–,–,–,–,–,–,6350,0.26,43000,5470,0.32,60000,5260,0.45,94000,–
recombinant histidine-tagged CspA of B. burgdorferi strain B31 (CspAB31) (natural protein),70,0.012,188000,200,0.017,114000,230,410,920,–,–,–,–,–,–,–,–,–,Kd [9]: 550 nM; koff [9]: 0.014 s⁻¹; kon [9]: 30000 M⁻¹ s⁻¹; Kd [10]: 880 nM
"CspA (Bba68) from B. burgdorferi strain B31, histidine tagged, residue 26 to 252 with leucine-246 replaced by aspartate (domain or fragment)",–,–,–,–,–,–,–,–,–,6480,0.29,49000,5400,0.36,70000,3500,0.38,143000,–
